Assay results: the DeepSol protein solubility set

Assay: soluble on expression in E. coli; label from the status in PepcDB or PDB records

Sequence	soluble on expression in E. coli
VNSHCSHTFITDNRSPRARRGHAMSTLHKVKAYFGMAPMEDYDDEYYDDRAPSRGYARPRFDDDYGRYDGRDYDDARSDSRGDLRGEPADYPPPGYRGGYADEPRFRPREFDRAEMTRPRFGSWLRNSTRGALAMDPRRMAMMFEDGHPLSKITTLRPKDYSEARTIGERFRDGSPVIMDLVSMDNADAKRLVDFAAGLAFALRGSFDKVATKVFLLSPADVDVSPEERRRIAETGFYAYQ	not soluble
MGSDKIHHHHHHMTTTDTRPSPSPLQQDYQRFLLLGSRRAPYTLHVHETGYRSGTINTDALGLRYSHCAGKRFSAAEHGGASRINLLVGGSTALGIGASSDEHTVASHLSMLTGEVWLSLAGCGLNATQELMMFLTHQHRLGQLGHVVVLSGLNSLAHEALCEVLAGTNDPQHAKAYQAFLNSFSEGMQPCAPPRRQSLWRRIGQALTPPVAAPPVSWPLSPPEKRLARAADNIGRTLRQWDRLLADSHATLTFILQPLLPWCRDTLPAGEQAMLTALQQQPANFDRLLEGAFDRQLHSAFFRRIKSQADPVPCYDMNCMLDSSPVFGADLFIDRLHLNDLGNNALAKVITAKLGLAQEKHAQRKVTPIKLV	not soluble
FDKVKVSTNFTYTLNQNKIVSLANGAINPETGEAIEMEYYSKGTLGTSGGPTLRLYENGSMGDIYINQRLRQSPNGYIWKDPSNGSLAIENTEYRKVGSILPKYYLGWNGSVAWKGWNLGFAFTGRFGGLVVSDTQAMIDKYGVSESSAVARQAGGVWVGDSKVDAEEYYSKVTTAVGTYYTYSATNIRLSELSLSYQLPKTWFKNHVNMTLGLTGKNLWMIYCKAPYDPESTSSVTSNFYQGVDYFQQPSLRSLGFNVKLTF	not soluble
GMTSSFTDYCKFFNRILSEVQETQEQAIIKGAHLVSEAVMNGGRFYVFGSGHSHMIAEEIYNRAGGLALVTAILPPELMLHERPNKSTYLERIEGLSKSYLKLHQVTNKDVIMIISNSGRNTVPVEMAIESRNIGAKVIAMTSMKHSQKVTSRHKSGKKLYEYADVVLDNGAPVGDAGFQIANSEIYSGATSDSIGCFLAQALIVETLHLLVQQGFEPPVFKSSNVDGADLYNDKIFNEYVKW	soluble
MRDLLNDLSEGLSHPDPILRAQIQMQKPLPKRFYKDVTVADVEEGGFTILLDGKPLRTPAKKPLVAPSRALADLLRDEWDAQKEVVNPVVMPVSRHVNTAIDGIASDTQAVFEDILRFSSSDLLCYRAGDPEALVARQTDYWDPVLDWATNVLGARFILVEGVMHRDQPREAIAAFAVTLKKYDTPIALAALHTMTSLTGSAILALALAEGELTLEEAWALAHLDEDWTAEQWGEDEEALERRAVRLIDMRAALNVLESLKSAS	soluble
MLYDKWDVIMKKVQDIVEAIPKNGTLSIVQRDLESNGDKFALKNPPQSFNLEHHHHHH	not soluble
MSTDLRALLEQARQQGDYTALLEQIPYAKLIGIECTQLGDELLFRLPANKDNIGNPLLPALHGGVIAGFMELAAALHLLILTGSPGVPKIIDFSLDYLRAGQFRDTFARCQVCRQGRRVANVAITAWQSTAEESIATARAHFKIEESTGPLEHHHHHH	soluble
ESTTVKMYEALPTGPGKEVGTVVISEAPGGLHFKVNMEKLTPGYHGFHVHENPSCAPGEKDGKIVPALAAGGHYDPGNTHHHLGPEGDGHMGDLPRLSANADGKVSETVVAPHLKKLAEIKQRSLMVHVGGDNYSDKPEPLGGGGARFACGVIE	soluble
MSLFLITNRKLVNREKYFNTIEEAGKYGVKNIILREKDLSTKELIKIYIKIKELVTEETNIIINSNIEATMILKEKFIHLSFKDFKRNLEEVKSLQVGVSVHSILEAIEADRLGASYILVSPIFETQCKKGVTPKGINFIKEIKEKVNCNVIALGGINEHNFKEVLGAGADDFACMSLLFMSNNIKKSLYTFKSLEGHHHHHH	not soluble
MSKIKIAIIGNGMVGHRFIEDLLDKADKDQFDITVFCEEPRIAYDRVHLSSYFSHHTAEELSLVREGFYEKQGVKVLVGERAITINRAEKVIHSNSGRSLYYDKLVMATGSYPWIPPIKGSEGQDCFVYRTIEDLNAIEACTRRSKRGAVIGGGLLGLEAAGALKSLGVETHVIEFAPVLMAEQLDPMGGDQLRQKIERMGVRVHTGKNTQEIVHSGQNSRKTMLFADGTQLEVDFIVFSTGIRPQDKLANQCGLATARRGGIAINDYCQTSDPDVYAIGECASWQERTFGLVAPGYKMAQVAADHLLGRENAFLGADMSAKLKLLGVDVGGIGDAHGRTEGARSYVYLDESKEIYKRLVVSADNKTLLGAVLVGDTTDYGNLLQLALNNITLPENPDSLILPAHAGNKPTIGVDSLPDSAQICSCFDVTKGDIIRAIGQGCQTVAALKSATKAGTGCGGCIPLVTQVLNAELSKQGIEVNNHLCEHFAYSRQELYHLIRVEGIKTFTELREKYGKGYGCEVCKPTVGSLLASCWNEYVLEPQHTPLQDTNDNFLGNIQKDGTYSIIPRSPGGEITPDGLLVVGQIAKEYNLYTKLTGSQRIGMFGAQKDDLPAIWARLIDAGFETGHAYAKALRMAKTCVGSTWCRFGVGDSVGFGVALEHRYKGIRAPHKIKFGISGCTRECAEAQGKDVGIIATENGWNLYVCGNGGMKPRHADLLAADLDEETLMRYLDRFMMFYIRTADKLQRTSVWLESLEGGIRYLQLVILEDKLGINDQLEAEIARLRDKVACEWKATVENPAAQVRFAHFINSSLRDPNVQVVREREQHRPARPDERIPVRVLELEDNA	not soluble
MGSDKIHHHHHHQPIPDMAKAQTAALNSITAADLSAYLHIVASDSMEGRATGEAGQKRTALYLADKFKEFGLSPAVPTAVDKSYFQKFSLVEKTWKEVWLKVGNKQKEFLKDFYAYGDVQLPEATAMKIVCAGYGIEARNYSDYTNLDVKDKGVIIFTGEPFKDSVSLVTKTKQSSTWANDWRAKADLAYKKGAKAVFIIVGNTDTDFETRLAALKDHLNAPSMAFTHKKKASAFFVPASLAAEMLKSTPDALASYKKNRTGTNTPYPFKSAKVIAKAGVTERTVETENVLAVIEGSRYPEEIVVLTAHYDHLGIENGQICYGADDDGSGTVALLEIAQAFSIAKSLGHGPARTILFMPVTGEERGLMGSEYYTDKPVFPLKNTVADLNIDMIGRVDAAHPNVIDENYVYIIGDNRLSSELHTLSENANTGWQGPKIVLDYTYNSFDDPNRFYYRSDHYNFAKNNIPVIFYFSGIHADYHKPTDTVDKIRFDKMAKITQLVFLTAWQLANMDHRLVVDRTE	not soluble
SDGPERDFNLKVVLISFKKCLTDKGEVLLDHYTASWKGLVRFLNSLGAVFSFISKDVVSKLQIMEHLRSGPQSEHYISLQSMVAYEVSNKLVDRDSRSRPRHPNSGCRTVLRLHRALHWLQLFLEGLRTSSEDARTSTLCSEAYNATLAAYHSWIVRQAVNVAFHALPPRKVFLEAMNMGSSEQAVEMLGEALPFIEQVYDISQKLYAEHSLLDLP	soluble
MGSDKIHHHHHHMTTGKKVARRKLSLLELASELDNVSKACRIMGYSRQQFYEIRRNYQTFGAEGLVDRLPGPREPHPNRVDEATEDRILAYSLEFPTHGPVRVAQQLVLQGVQVSSGGVRGVWSRNGMLTRHERLLRLERHVRDTGIALNDDQVRTLERFSPEFRERHIETRCSGDLVAVDTFFVGTLKGVGKIYLQSAIDCHSRYAFGRLYTSKLPVTAVHMLNESVLPFFEEHDTPVVTVLSDNGREFCGRPDRHPYELFLQLENIEHRTTRVRRPQSNGFVERLHRTLLDEHFRIQGRKNWYESLDEMQADLDAYLRHYNHERAHQGRNMSGRTPYQAFLDSRPEGQPKEDNEGHYAA	not soluble
MAMIGLVGKPNVGKSTMFNALTEKPAEIGNYPFTTIQPNKGIAYITSPCPCKELGVKCNPRNSKCIDGIRHIPVEVIDVAGLVPGAHEGRGMGNKFLDDLRQADAFILVVDASGKTDAEGNPTENYDPVEDVKFLLNEIDMWIYSILTKNWDKLARRAQQEKNIVKALKDQLSGLNIDEDDIKMAIRDMDESPIKWTEEDLLNLAKKLRKISKPMIIAANKADHPDAEKNIERLKKEFKDYIVIPTSAEIELALKRAEKAGIIKRKENDFEIIDESKVNEQMRRAFDYIKDFLKKYGGTGVQECINKAYFDLLDMIVVYPVEDENKFSDKQGNVLPDAFLVKKGSTARDLAYKVHTELGEKFIYAIDAKKKIRVGADYELKHNDIIKIVSAAK	soluble
MILIADSGSTKTDWCVVLNGAVIKRLGTKGINPFFQSEEEIQQKLTASLLPQLPEGKFNAVYFYGAGCTPEKAPVLRRAIADSLPVIGNIKANSDMLAAAHGLCGQKAGIACILGTGSNSCFYNGKEIVSNISPLGFILGDEGSGAVLGKLLVGDILKNQLPATLKEEFLKQFDLTPPEIIDRVYRQPFPNRFLASLSPFIAQHLEEPAIRQLVMNSFIAFFRRNVMQYDYKQYPVHFIGSIAYCYKEILQDAARQTGIQIGKILQSPMEGLIQYHSQLSFHPLEHHHHHH	soluble
MAIDLAEVTGAKAAQERKKEQPTIANGLDKNAFMKLFLEQLKNQDPTAPMETDKIITQTAQLTQVEMQEENKKTMQEVASAMKSNKETNESLKDFQGALKDTMENLNKGMDDSLKANNALREVTALNSVSMIGKIAETDVSGANFDGNNKLSFSLFFDEKIDASKGVPAIQILNENNELVKTIPLKDYNGQKGYINFEWDGTNEKGEKVPKGNYKIKAEYNLDSHSKQYLQTRIGRGEVESVIFDKGKPMLRMGEMVLPIDSAIEFYQPDQKPLEQKLSDQKPIDQKPLDQKPQTPPKETA	not soluble
RTHSGEKPYECYICHARFTQSGTMKMHILQKHTENVAKFHCPHCDTVIARKSDLGVHLRKQHSY	soluble
MGSDKIHHHHHHMSKSLFPFRFLLPVPVDHYENFPVASWLLPGRLREPVSAIYRFARSADDLADEGDAPPRARLQELARYHSELDRIERGEIPDDPIFGRLAAAIRAHALPLTPFRDLLSAFAQDIEKTRYASFGEVMDYCRRSANPVGRLMLHLYGDHDPRHQAYSDAICSSLQLINFLQDVAIDYAKGRIYLPQDELAAHHVSEAQIAAGDAGGLWRMMMHKQIERARKLLQAGAPLGRALDGRIGLELRVTIRGGETILRKLHADPGCVFGARPVLGKRDWIVMLARSVL	not soluble
MAHHHHHHMEMHATHVAACSLRRLRSSAVTSRVMTSTHLSLPCRLKSYVLKFLRGQLPEDLKDLNGALGCLYGTLPDVDEFGQFVIAPEIVERFHQLGYIKLPRPVLDAQQVDKLADEVNELANNVEHHPKTEKLYATSLANLTEGPLFYCQGQWRAAWGMHDLIYLPTITVAASQILGNSIVRLWYDEVFMKEARKGPCVPWQQNYARWQHTTPVNHVTVMIALDTMNKDRGAPCLVPGSHRWREGGLLPSVPYDPAKDEAQQLNTIWEITNEEESEMLMDTPPATVDMKRGEALLIHPLTLFATHGNRSLDAVRCCFIHYMGGKTYATQNGPLLPHTTQFQAGAMIQGPFYPVVFDPAMTEELAMLPGESAAQKDITEEV	soluble
MGSDKIHHHHHHMKYGIVGYSGRMGQEIQKVFSEKGHELVLKVDVNGVEELDSPDVVIDFSSPEALPKTVDLCKKYRAGLVLGTTALKEEHLQMLRELSKEVPVVQAYNFSIGINVLKRFLSELVKVLEDWDVEIVETHHRFKKDAPSGTAILLESALGKSVPIHSLRVGGVPGDHVVVFGNIGETIEIKHRAISRTVFAIGALKAAEFLVGKDPGMYSFEEVIFGGE	soluble
MLKGIDLTYPQLTYLPETGILYDNTYNEKTVPIISGGGSGHEPAHVGYVGSGMLAAAVTGPLFIPPKSKNILKAIRQVNSGKGVFVIIKNFEADLKEFNEAIKEARTEGIDVRYIVSHDDISVNAYNFHKRHRGVAGTILLHKILGAFAKEGGSIDEIEQLALSLSPEIYTLGVALAPVHFPHQKTSFVLAEDEVSFGIGIHGEPGYRVEKFEGSERIAIELVNKLKAEINWQKKANKNYILLVNGLGSTTLMELYSFQYDVMRLLELEGLSVKFCKVGNLMTSCDMSGISLTLCSVKDPKWLDYLNVPTGAFAWLEHHHHHH	not soluble
